Measurements reported in publication PMC10272835 (2023).
Blank lines part the entries; values can stand above or below the binder they belong to. No end group written: not given here.

Tests used:
Assay in all cases: SPR
[1] = target: T1, N-terminal SH2 domain of SHP2
T1 chain: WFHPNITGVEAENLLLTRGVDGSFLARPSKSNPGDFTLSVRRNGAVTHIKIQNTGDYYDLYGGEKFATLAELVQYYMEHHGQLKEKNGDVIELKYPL

[2] = target: T2, C-terminal SH2 domain of SHP2
T2 chain: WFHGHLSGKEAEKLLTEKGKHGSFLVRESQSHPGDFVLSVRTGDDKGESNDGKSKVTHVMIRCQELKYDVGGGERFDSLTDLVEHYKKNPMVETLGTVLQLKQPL

dual SH2 domains of SHP2 [3] = target: T3, dual SH2 domains of SHP2
T3 chain: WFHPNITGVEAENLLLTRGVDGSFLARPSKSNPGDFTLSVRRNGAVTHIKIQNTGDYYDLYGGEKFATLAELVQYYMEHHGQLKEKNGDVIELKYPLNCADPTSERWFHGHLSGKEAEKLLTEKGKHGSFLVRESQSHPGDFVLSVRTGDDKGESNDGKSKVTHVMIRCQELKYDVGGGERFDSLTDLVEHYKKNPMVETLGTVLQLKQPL

[4] = target: T1, N-terminal SH2 domain of SHP2
[5] = target: T2, C-terminal SH2 domain of SHP2
dual SH2 domains of SHP2 [6] = target: T3, dual SH2 domains of SHP2

- Kd [1]: 0.442 nM
- Kd [2]: 15.1 nM
- Kd (dual SH2 domains of SHP2 [3]): 3.01 nM
B1: phosphorylated PD1 ITSM peptide (peptide)
chain: KTPEPPVPSVPEQTEYATIVFPSGMGTSS
modifications: also: phosphorylated, residue not given here, biotinylated, position not given here

- koff [4]: 0.000297 s⁻¹
- koff [5]: 0.00329 s⁻¹
- koff (dual SH2 domains of SHP2 [6]): 0.000121 s⁻¹
- Kd [1]: 3.35 nM
- Kd [2]: 0.638 nM
- Kd (dual SH2 domains of SHP2 [3]): 1.84 nM
Binder: KEDPSAVPVFSVDYGELDFQWRE (also: phosphorylated, residue not given here, biotinylated, site not given here) [phosphorylated PD1 ITIM peptide]
